# Test results as given in the RNAGym collection of RNA variant scans (doi:10.1073/pnas.2313332121).
# B1: TPR t1 (parent)
# chain: GACCAAUCUGCCCUCAGAGCUCGAGAACAUCUUCGGAUGCAGAGGAGGCAGGCUUCGGUGGCGCGAUAGCGCCAACGUCCUCAACCUCCAAUGCAUCCCACCACAUGAUGAUGCCUGAAGAGCCUUGGUUUUUUG
# Variants of: B1
# Test: polymerase ribozyme fitness, log enrichment relative to wild type (log ratio); higher = more active; in vitro selection for triplet polymerase activity
# Outline: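 For each subunit of a heterodimeric triplet polymerase ribozyme, a mutant library was built by PCR and transcribed, then taken through a single in vitro selection round in triplicate. Selection involved annealing to a biotinylated primer, the partner subunit and triplets, incubation frozen at −7 °C, gel excision of extended constructs, capture on streptavidin beads and RT-PCR. Genotypes were retained after Illumina sequencing of inputs and outputs only with ≥10 input reads and ≥1 read in each output. Fitness is defined as the logarithm of a genotype's enrichment relative to wild-type enrichment, using inverse-variance-weighted averages across replicates, with the logarithm taken to base 2.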
row,Variant,polymerase ribozyme fitness (log ratio)
1,C15A A37G C79G,-3.88
2,C15U A27U,-4.81
3,C15G A50U U109A,-6.25
4,C15A C88U,-2.17
5,C15G C70U,-3.1
6,C15U G39C G71A,-2.36
7,C15U G36A,-1.76
8,C15U G36C U112C,-1.24
9,C15U A37U C62U,-1.85
10,C15U C76G G77C C123A,-2.59
11,C15G A46G C56G,-4.02
12,C15G C34A,-5.11
13,C15G C101U,-2.56
14,C15G C101A,-3.78
15,C15G A16U C72U U109A C115U,-6.16
16,C15A G36A C72U U116A G120U,-4.34
17,C15U G35C G69U,-2.64
18,C15G G39U G48A A68U U112G,-7.39
19,C15A C56A,-0.645
20,C15A C56U,-1.71
21,C15U G39A G117C G120A,-3.48
22,C15U C56G G60U U78G U92A,-6.42
23,C15U C79G C98U,-4.8
24,C15U C82G A108G A111G A121C,-6.58

row,Variant,polymerase ribozyme fitness (log ratio)
1,C15G C62U,-1.91
2,C15A G19A A50C A74G C102A C104A A121U U125G,-6.51
3,C15G U32C C49U U87G C123A,-3.12
4,C15A A111G,-2.08
5,C15U G42C,-2.79
6,C15G C115A,-2.88
7,C15A G48U A50G C97U,-4.67
8,C15U G42C G71U,-3.24
9,C15U A50U C76U U78A,-3.61
10,C15A G61C,-4.23
11,C15A G61A,-2.09
12,C15G G63U,-3.98
13,C15G G63A,-3.35
14,C15A C72U G93U C114G,-5.25
15,C15A C73G G117A G127U,-4.62
16,C15U A66G G71A C98A G113U,-7.64
17,C15G C72U,-3.01
18,C15G C98G G120A C123A C124A,-6.86
19,C15G A29G C88G,-3.43
20,C15G G120C,-0.975
21,C15U C22G G61C C114G,-7.09
22,C15G U55C A75G,-3.14
23,C15A A46C A84C A91U,-4.15
24,C15A G52A G117U,0.0979

row,Variant,polymerase ribozyme fitness (log ratio)
1,C15G G57A,-4.5
2,C15G G110A,-3.78
3,C15U C73U C94A A111C,-2.53
4,C15U A41C G48A C53U C56U C124U,-1.63
5,C15G G44C G47A G69U G135U,-3.36
6,C15A A37U G39A G42U A90U,-3.14
7,C15U G42C A46U,-3.23
8,C15A C28G G36A C40U G110C U112C C115A G117U G120A,-3.11
9,C15A G120A,0.181
10,C15A C70A,-2.47
11,C15A C70U,-2.96
12,C15G G61C A119G,-0.591
13,C15G A37C A46U C53A C56G,-4.78
14,C15A C82G G117C G120C,-5.78
15,C15G C98U,-4.22
16,C15A C20U U109A,-5.4
17,C15U C79U A111U A121U,-3.53
18,C15A A41U G60C U133A,-3.25
19,C15A G52U U55G,-1.52
20,C15A A37U,-2.28
21,C15U C22G U54G G71U G93A G122A C123U,-4.87
22,C15A G57U C64G,-6.59
23,C15G C94A,-3.63
24,C15A G61U C89U G122U C124G G135A,-0.759

row,Variant,polymerase ribozyme fitness (log ratio)
1,C15U C86U C102A,-4.01
2,C15A G47U G61U G110A,-3.43
3,C15U A16U G58C C72U C80A A111C,-6.92
4,C15A G63A,-2.56
5,C15U C56G A90C G93A G117U G127A,-3.28
6,C15G C28A G44U G52U G69U,-5.21
7,C15A U78A,-2.6
8,C15U C99U C102A G113U A118G,-7.09
9,C15A C82A,-3.12
10,C15A C88U C123U,-1.37
11,C15G G63A U116G,-3.64
12,C15U A41U,-2.32
13,C15G A18U,-3.36
14,C15A U109G G113A U131A,-5.16
15,C15G G47U A83U A108U C114G U116G G117C,-6.68
16,C15U A50U G63C C89U,-3.78
17,C15G A83U C115G C123A,-5.38
18,C15A A46U G117U C124U U132C,-0.364
19,C15A G47U G61U,-3.15
20,C15U G44C A83U A100C,-3.3
21,C15A G47U C115A A121C U133C,-3.65
22,C15G U112A,-1.44
23,U14G U129G,-3.21
24,C15U A43U G45C C94G,-4.68

row,Variant,polymerase ribozyme fitness (log ratio)
1,C15A G52A G61U C88A A95C U112C C124U,-1.64
2,C15G U92G C97U A118U,-4.66
3,C15A G63U C72U U129G U131C,-4.85
4,C15A G69C,-3.57
5,C15A G39C,-3.41
6,C15A G39A,-2.28
7,U14G U54A G61C,-2.7
8,C15A C49G,-2.46
9,C15U C72A C82U,-1.42
10,C15A A29G C72A U81A U87C G120C,-2.96
11,C15G G44C G57U,-3.85
12,C15A C22A U96A C124U,-5.05
13,C15U C64U G77A G93C C98U G120A C124G,-1.82
14,C15U C114A,-3.36
15,C15G G60C U130C,-1.49
16,C15A U33A G42C U78C C79U A111G,-6.15
17,C15A C20A G71U A118U,-4.11
18,C15U A29U A37U C62G C124G G135C,-2.45
19,C15U G44A G47A A105U,-5.8
20,C15G C70U C82G C88A,-4.4
21,C15U G44U,-2.59
22,C15U G48C C72G U112A,-0.505
23,C15G C53G C72A U81A G120C C123G,-2.32
24,C15A A68G C97A A103G,-6.8

row,Variant,polymerase ribozyme fitness (log ratio)
1,C15G G42A C88G,-4.44
2,C15U A74G C88A A91C,-2.13
3,C15A A46C G52U C56U C115G,-6.86
4,C15U G42U G44C C94U,-3.39
5,C15U C70U G71A,-1.62
6,C15U A16U C76A C115A C123A U130C,-5.56
7,C15A A74G U81G U112C,-3.53
8,C15G G71U C72U A95U,-4.5
9,C15U A50U G120C,-0.665
10,C15A G63C C88U,-3.01
11,C15G A118U U131A,-1.47
12,C15U G42C C76U U106A,-4.25
13,C15U G45C G47A C53U U59A A90G C101U,-5.35
14,C15U C124G,-0.245
15,C15A C20A G107A A121G,-5.21
16,C15G U32C A43G G45U C89G,-4.49
17,C15A A46C G63A G113C C114U,-6.03
18,C15G C56U U87A C115U U131C,-0.823
19,C15A U32C G71C,-2.71
20,C15U G44U G71C,-2.64
21,C15U A16U G42C G61A C89A,-1.37
22,C15G C85U,-3.82
23,C15G G52U U87G,-3.21
24,C15A A41U,-3.45

row,Variant,polymerase ribozyme fitness (log ratio)
1,C15A G61U A105C,-4.93
2,C15G A37U A66G C123A,-3.27
3,C15A C72G C104U,-1.9
4,C15G G117C,-3.41
5,C15U G23A A111U,-7.2
6,C15G U106G G117C,0.15
7,C15G A18U C70U U116A G120U,-1.19
8,C15U A37G G71A C80U A118U U133A,-4.3
9,C15U A18G A37G U54A A100U C115A,-5.29
10,C15U C56A G69C U78C A83G U112C U116A,-6.66
11,C15G A84U G120U U129G,-5.84
12,C15A G44A G45U G48U C62U C73U U78G,-5.47
13,C15A C20A A118U,-3.93
14,C15A G48C,-3.05
15,C15G C114U,-4.3
16,C15A A18U C22G U92G,-6.59
17,C15G A16C G51U G61U G71C C79A U112G,-6.41
18,C15U G48A,-1.7
19,C15U C34G C53U C114U,-5.11
20,C15G C97U,-2.23
21,C15U A95U,-2.49
22,C15G A16U G69C,-4.45
23,C15U C56U,-1.21
